Source: paper PMC5503513, “Tandem hnRNP A1 RNA recognition motifs act in concert to repress the splicing of survival motor neuron exon 7”

What was measured:
hnRNP A1 RRM1 F23A [1] = target: T1, hnRNP A1 RRM1 F23A (UniProt P09651 2-97, F23A); assay: ITC; 10 mM sodium phosphate pH 6.5, 10 mM 2-mercaptoethanol, no added salt, 30 C; RNA 5-10 uM in the cell; 1:1 fit; conditions: one extra N-terminal Ala in PDB 5MPG (left out)
hnRNP A1 RRM1 R55A = hnRNP A1 RRM1 R55A (UniProt P09651 2-97, R55A); assay: as above; conditions: one extra N-terminal Ala in PDB 5MPG (left out)
hnRNP A1 RRM1 D42A [2] = target: T2, hnRNP A1 RRM1 D42A (UniProt P09651 2-97, D42A); assay: as above; conditions: one extra N-terminal Ala in PDB 5MPG (left out)
hnRNP A1 UP1 r1R2 [3] = target: hnRNP A1 UP1 r1R2 (Homo sapiens, UniProt P09651 2-196, F17A;F59A); assay: as above; conditions: extra N-terminal Gly-Gly in PDB 2LYV (left out)
hnRNP A1 RRM1 R92A [4] = target: T3, hnRNP A1 RRM1 R92A (UniProt P09651 2-97, R92A); assay: as above; conditions: one extra N-terminal Ala in PDB 5MPG (left out)
hnRNP A1 UP1 R1r2 [5] = target: hnRNP A1 UP1 R1r2 (Homo sapiens, UniProt P09651 2-196, F108A;F150A); assay: as above; conditions: extra N-terminal Gly-Gly in PDB 2LYV (left out)
hnRNP A1 RRM2 R140A [6] = target: T4, hnRNP A1 RRM2 R140A (UniProt P09651 95-196, R140A); assay: as above; conditions: none in PDB 5MPL
hnRNP A1 RRM1 F23A [7] = target: T1, hnRNP A1 RRM1 F23A; assay: ITC; ITC: 10 mM NaPi pH 6.5, 10 mM 2-mercaptoethanol, 30 C, protein titrated into RNA; NMR: 10 mM NaPi pH 6.5, 1 mM DTT (303 K stated for UP1-R140A:ISS-N1-u25g); conditions: protein: recombinant; single strand
hnRNP A1 RRM2 = hnRNP A1 RRM2 (UniProt P09651 95-196); assay: as above; conditions: protein: recombinant; single strand
hnRNP A1 RRM2 E176Q [8] = target: T5, hnRNP A1 RRM2 E176Q (UniProt P09651 95-196, E176Q); assay: as above; conditions: protein: recombinant; single strand
UP1 r1R2 [9] = target: UP1 r1R2 (UniProt P09651 1-196, F17A;F59A); assay: as above; conditions: protein: recombinant; single strand
hnRNP A1 RRM1 D42A [10] = target: T2, hnRNP A1 RRM1 D42A; assay: as above; conditions: protein: recombinant; single strand
UP1 R1r2 [11] = target: UP1 R1r2 (UniProt P09651 1-196, F108A;F150A); assay: as above; conditions: protein: recombinant; single strand
hnRNP A1 RRM2 R140A [12] = target: T4, hnRNP A1 RRM2 R140A; assay: as above; conditions: protein: recombinant; single strand
hnRNP A1 RRM1 [13] = target: T6, hnRNP A1 RRM1 (UniProt P09651 2-97); assay: as above; conditions: protein: recombinant; single strand
hnRNP A1 RRM1 R92A [14] = target: T3, hnRNP A1 RRM1 R92A; assay: ITC; range, no saturation; ITC: 10 mM NaPi pH 6.5, 10 mM 2-mercaptoethanol, 30 C, protein titrated into RNA; NMR: 10 mM NaPi pH 6.5, 1 mM DTT (303 K stated for UP1-R140A:ISS-N1-u25g); conditions: protein: recombinant; single strand
hnRNP A1 RRM1 [15] = target: T6, hnRNP A1 RRM1; assay: ITC; first listed measurement; ITC: 10 mM NaPi pH 6.5, 10 mM 2-mercaptoethanol, 30 C, protein titrated into RNA; NMR: 10 mM NaPi pH 6.5, 1 mM DTT (303 K stated for UP1-R140A:ISS-N1-u25g); conditions: protein: recombinant; single strand
hnRNP A1 RRM1 F23A [16] = target: T1, hnRNP A1 RRM1 F23A; assay: ITC; second listed measurement; ITC: 10 mM NaPi pH 6.5, 10 mM 2-mercaptoethanol, 30 C, protein titrated into RNA; NMR: 10 mM NaPi pH 6.5, 1 mM DTT (303 K stated for UP1-R140A:ISS-N1-u25g); conditions: protein: recombinant; single strand
hnRNP A1 RRM2 E176Q [17] = target: T5, hnRNP A1 RRM2 E176Q; assay: ITC; 10 mM sodium phosphate pH 6.5, 10 mM 2-mercaptoethanol, no added salt, 30 C; RNA 5-10 uM in the cell; 1:1 fit; conditions: none in PDB 5MPL
hnRNP A1 RRM2 M186A [18] = target: T7, hnRNP A1 RRM2 M186A (UniProt P09651 95-196, M186A); assay: as above; conditions: none in PDB 5MPL
hnRNP A1 RRM1 [19] = target: T6, hnRNP A1 RRM1; assay: as above; conditions: one extra N-terminal Ala in PDB 5MPG (left out)
hnRNP A1 RRM2 M186A [20] = target: T7, hnRNP A1 RRM2 M186A; assay: ITC; ITC: 10 mM NaPi pH 6.5, 10 mM 2-mercaptoethanol, 30 C, protein titrated into RNA; NMR: 10 mM NaPi pH 6.5, 1 mM DTT (303 K stated for UP1-R140A:ISS-N1-u25g); conditions: protein: recombinant; single strand
hnRNP A1 RRM2 Y167F = hnRNP A1 RRM2 Y167F (UniProt P09651 95-196, Y167F); assay: as above; conditions: protein: recombinant; single strand
hnRNP A1 RRM1 D42A [21] = target: T2, hnRNP A1 RRM1 D42A; assay: ITC; range, no saturation; ITC: 10 mM NaPi pH 6.5, 10 mM 2-mercaptoethanol, 30 C, protein titrated into RNA; NMR: 10 mM NaPi pH 6.5, 1 mM DTT (303 K stated for UP1-R140A:ISS-N1-u25g); conditions: protein: recombinant; single strand
hnRNP A1 RRM1 [22] = target: T6, hnRNP A1 RRM1; assay: as above; conditions: protein: recombinant; single strand

T5 sequence (P09651 95-196 E176Q): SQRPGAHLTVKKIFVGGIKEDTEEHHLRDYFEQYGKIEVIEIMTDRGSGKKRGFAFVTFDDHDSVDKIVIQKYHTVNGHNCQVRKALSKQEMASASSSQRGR
T3 sequence (P09651 2-97 R92A): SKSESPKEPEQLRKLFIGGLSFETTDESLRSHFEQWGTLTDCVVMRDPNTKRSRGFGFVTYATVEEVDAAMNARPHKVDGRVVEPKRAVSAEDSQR
T4 sequence (P09651 95-196 R140A): as the sequence (P09651 95-196 E176Q) above, with R46A, Q82E counted along it
T1 sequence (P09651 2-97 F23A): as the sequence (P09651 2-97 R92A) above, with F22A, A91R counted along it
T2 sequence (P09651 2-97 D42A): as the sequence (P09651 2-97 R92A) above, with D41A, A91R counted along it
T6 sequence (P09651 2-97): as the sequence (P09651 2-97 R92A) above, with A91R counted along it
Chain of hnRNP A1 RRM2 (P09651 95-196): as the sequence (P09651 95-196 E176Q) above, with Q82E counted along it
T7 sequence (P09651 95-196 M186A): as the sequence (P09651 95-196 E176Q) above, with Q82E, M92A counted along it
Chain of hnRNP A1 UP1 r1R2 (P09651 2-196 F17A/F59A): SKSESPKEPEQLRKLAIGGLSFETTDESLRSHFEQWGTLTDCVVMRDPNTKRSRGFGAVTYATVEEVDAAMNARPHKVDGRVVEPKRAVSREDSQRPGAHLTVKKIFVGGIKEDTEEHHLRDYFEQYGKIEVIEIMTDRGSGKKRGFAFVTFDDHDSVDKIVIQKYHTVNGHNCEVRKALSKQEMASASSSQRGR
Chain of hnRNP A1 UP1 R1r2 (P09651 2-196 F108A/F150A): as the sequence (P09651 2-196 F17A/F59A) above, with A16F, A58F, F107A, F149A counted along it
Chain of UP1 r1R2 (P09651 1-196 F17A/F59A): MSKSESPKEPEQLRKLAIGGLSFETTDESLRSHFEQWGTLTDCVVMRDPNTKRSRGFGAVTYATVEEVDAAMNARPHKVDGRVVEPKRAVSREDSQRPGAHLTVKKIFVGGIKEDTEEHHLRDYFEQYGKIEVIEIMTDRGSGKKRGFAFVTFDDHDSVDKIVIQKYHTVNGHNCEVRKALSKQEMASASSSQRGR
Chain of hnRNP A1 RRM2 Y167F (P09651 95-196 Y167F): as the sequence (P09651 95-196 E176Q) above, with Y73F, Q82E counted along it
Chain of UP1 R1r2 (P09651 1-196 F108A/F150A): as the sequence (P09651 1-196 F17A/F59A) above, with A17F, A59F, F108A, F150A counted along it
Chain of hnRNP A1 RRM1 R55A (P09651 2-97 R55A): as the sequence (P09651 2-97 R92A) above, with R54A, A91R counted along it

| Binder | Kd (hnRNP A1 RRM1 D42A [2]) [nM] | Kd (hnRNP A1 UP1 r1R2 [3]) [nM] | Kd (hnRNP A1 RRM1 R92A [4]) [nM] | Kd (hnRNP A1 UP1 R1r2 [5]) [nM] | Kd (hnRNP A1 RRM2 R140A [6]) [nM] | Kd (hnRNP A1 RRM2) [nM] | Kd (hnRNP A1 RRM2 E176Q [8]) [nM] | Kd (UP1 r1R2 [9]) [nM] | Kd (hnRNP A1 RRM2 R140A [12]) [nM] | further results |
| --- | --- | --- | --- | --- | --- | --- | --- | --- | --- | --- |
| UUAGGUC (ssRNA) | 787 ± 42 | 56.2 ± 4 | ~2850 | 45 ± 2 | 195 ± 12 | 64 ± 8 | 116 ± 39 | 56 ± 4 | 195 ± 12 | Kd (hnRNP A1 RRM1 F23A [1]): 209 ± 13 nM; Kd (hnRNP A1 RRM1 R55A): > 10000 nM; Kd (hnRNP A1 RRM1 F23A [7]): 225 ± 13 nM; Kd (hnRNP A1 RRM1 D42A [10]): 787 ± 42 nM; Kd (UP1 R1r2 [11]): 47 ± 2 nM; Kd (hnRNP A1 RRM1 [13]): 288 ± 16 nM; Kd (hnRNP A1 RRM1 R92A [14]): ~2240 nM; Kd (hnRNP A1 RRM1 [15]): 292 ± 17 nM; Kd (hnRNP A1 RRM1 F23A [16]): 193 ± 11 nM |
| UUAGUU (ssRNA) | ~2690 | 142 ± 9 | > 10000 | 105 ± 8 | 433 ± 26 | 125 ± 9 | 286 ± 12 | 142 ± 9 | 433 ± 26 | Kd (hnRNP A1 RRM2 E176Q [17]): 286 ± 12 nM; Kd (hnRNP A1 RRM2 M186A [18]): 253 ± 15 nM; Kd (hnRNP A1 RRM1 [19]): ~5990 nM; Kd (hnRNP A1 RRM2 M186A [20]): 253 ± 15 nM; Kd (hnRNP A1 RRM2 Y167F): 118 ± 9 nM; Kd (hnRNP A1 RRM1 D42A [21]): ~2240 nM; Kd (hnRNP A1 RRM1 [22]): ~5200 nM |
